The target of one assay is T1, SLC2A9, Q9NRM0-1.
T1 sequence: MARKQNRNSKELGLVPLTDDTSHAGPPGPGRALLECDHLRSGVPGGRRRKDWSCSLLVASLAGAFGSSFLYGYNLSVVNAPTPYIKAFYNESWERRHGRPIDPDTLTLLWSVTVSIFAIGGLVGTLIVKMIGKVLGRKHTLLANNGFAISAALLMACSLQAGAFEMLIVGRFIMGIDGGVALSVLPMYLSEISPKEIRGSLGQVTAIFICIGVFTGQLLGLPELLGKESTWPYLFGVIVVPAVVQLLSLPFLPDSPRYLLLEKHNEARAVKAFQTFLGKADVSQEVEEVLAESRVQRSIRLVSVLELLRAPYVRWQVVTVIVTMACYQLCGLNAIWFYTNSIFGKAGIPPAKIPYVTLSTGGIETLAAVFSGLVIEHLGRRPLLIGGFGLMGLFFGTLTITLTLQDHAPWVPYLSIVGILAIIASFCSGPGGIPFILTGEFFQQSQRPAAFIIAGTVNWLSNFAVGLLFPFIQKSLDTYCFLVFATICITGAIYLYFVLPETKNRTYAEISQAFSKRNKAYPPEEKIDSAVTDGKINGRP

A further assay deals with T2, SLC2A9, Q9NRM0-2.
T2 sequence: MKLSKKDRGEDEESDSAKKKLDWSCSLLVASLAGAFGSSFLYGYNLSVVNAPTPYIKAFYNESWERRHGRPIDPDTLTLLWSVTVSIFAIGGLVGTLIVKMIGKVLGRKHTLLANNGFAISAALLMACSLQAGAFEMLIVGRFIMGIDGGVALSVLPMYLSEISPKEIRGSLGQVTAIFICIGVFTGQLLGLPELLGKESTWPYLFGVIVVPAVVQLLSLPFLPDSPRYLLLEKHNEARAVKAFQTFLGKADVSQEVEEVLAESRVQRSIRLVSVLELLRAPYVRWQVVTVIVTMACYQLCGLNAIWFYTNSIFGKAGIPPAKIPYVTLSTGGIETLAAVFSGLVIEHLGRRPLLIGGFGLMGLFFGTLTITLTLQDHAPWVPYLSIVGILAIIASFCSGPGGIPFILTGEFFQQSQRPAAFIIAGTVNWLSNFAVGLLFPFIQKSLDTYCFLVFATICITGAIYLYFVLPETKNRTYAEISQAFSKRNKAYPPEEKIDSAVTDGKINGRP

“Integral membrane protein 2B (Homo sapiens) (from UniProt Q9Y287) E261A”: the “effect of a mutation on the interaction” value is “with no effect” in the assay with SLC2A9, Q9NRM0-1 and “with no effect” in the assay with SLC2A9, Q9NRM0-2.

As to “Integral membrane protein 2B (Homo sapiens) (from UniProt Q9Y287) N170Q”, the “effect of a mutation on the interaction” value in the assay with SLC2A9, Q9NRM0-1 is reported as “decreasing interaction strength”.
